# Experimental data reported in the DeepSol protein solubility set.
# Test: soluble on expression in E. coli; label from the status in PepcDB or PDB records
row,Sequence,soluble on expression in E. coli
1,MVDREWVLKIAKLARLELKEEEIEVFQKQLSDILDFIDQLKELDTENVEPYIQEFEETPMREDEPHPSLDREKALMNAPERKDGFFVVPRVVEV,soluble
2,MFNSKPLLTITLLAVSSVASAAEQALDAQQVAQLIEKADSYRLQDDSSKVVSLVRLYQDQELDKTRLYHVYTRPNRESLVVFKSAVEAGQKMLMMGDNYWLQMPKSRRPIRITPMQKLLGEASIGDISTLTWSQDYQGEWKATETLTINGQSIAAYRLALTAKTKGASYQKIDLWLSEQDAFPIKADLYLRSGKLAKQAQYGRATNLGKDYVSEMTLLDSIQPSKKTVIEYQEIVPWQLDNKFYNPSYLPKANTSEL,not soluble
3,MSLRQRLTRRDPVSRLPNREQFQSDLYDLADENPGERRVLVLVDAVDMTVAHELTLAMGLAPFETIVRFLAQQLLAYLGRHVRVYHVSVKRFGFLLPAAPGIERFLESLVRRLRRQPPGLELPMIPGVCAGTVEFSTDRDAVPDVLRKAMFALELATLNRSTWAPYDVVRDQAYRRAFNLASDISEALDSGQIYLMFQPRFALPDGAQVSAEALIRWDHPWLGPISPAEFIPVMERNALIHRVTHWVINAVLGKLQAWSDGEVQRLSINLSPQDFEDQDIADVLKAACRRHGIEPHRLEVEITEGAWLRSNPRVLDQLSKIRALGMDVAIDDFGTGYSNFAYLHQIPANVVKLDKSMVTDLESSAQHQKITRSVIALARELGYRTVAEGIESFKCLQMLRTFGCDEAQGYFLARPMVQEKFLARSAAQRFPLQEGHHHHHH,soluble
4,MVNVLSNLSNLSNILGKSNKGVGIELAPERMNIVHLCKQRQGLKIESLTTIPVPEGIVVDGQINDPPRMAEIIQQGMAESKIKASRVATCIPGRDAIVRVIPVPAELDNKELREMVLNHEAALYLPYPREEADVDYQKLGYFVDEDGIEKVQVLLVATRKEITDTYINTFAEAGLKVDVLEINSFALIRTIRDQLRLFGPQEAAVLVDIEFDSTEIAIIINGVPQFSRTVPIGTYQLQAALSRAMNLPTSRDMDMLMGMTIPTNSMDVGRTGTTGVNPGMGPMLKILGELSDELRRSIDFYINQSEGLEVAQILLAGTGGGLQQLDEFFTQRLGFPTTQIDPIRDLSLQVEAEKYPPVQRPGLGIILGLAMREG,not soluble
5,MGSDKIHHHHHHMAVSELQVQSALKELIDPNTHKDYVTTKSARNIKIDGDAVSVDIALGYPAQSQLATIKQQVEDKLKTLDGVSKATANVSFKIVSHSVQRGVKLIPNVKNIIAVASGKGGVGKSTTAVNLALALAAEGARVGMLDADIYGPSQPTMLGITDKPESTDGKNLDPLIGHGIQAMSIGFLIDVETPMVWRGPMVTQALEQLLNNTNWNELDYLVVDLPPGTGDIQLTLAQRVPVTGAVIVTTPQDIALIDARKGLKMFEKVGIPIIGVVENMSLHICSNCGHEERIFGEGGGERMCRDYNVEFLGALPLDSSIRADTDSGKPSVVSDPDGRVTEIYKQIARRVAVKIGETAVDHSAKFPNIVISNT,not soluble
6,MIYQPDENRYHTMEYRRCGRSGVKLPAISLGLWHNFGDTTRVENSRALLQRAFDLGITHFDLANNYGPPPGSAECNFGRILQEDFLPWRDELIISTKAGYTMWDGPYGDWGSRKYLIASLDQSLKRMGLEYVDIFYHHRPDPETPLKETMKALDHLVRHGKALYVGISNYPADLARQAIDILEDLGTPCLIHQPKYSLFERWVEDGLLALLQEKGVGSIAFSPLAGGQLTDRYLNGIPEDSRAASGSRFLKPEQITADKLEKVRRLNELAARRGQKLSQMALAWVLRNDNVTSVLIGASKPSQIEDAVGMLANRRFSAAECAEIDAILEGRF,not soluble
7,MGSDKIHHHHHHMFDWNDLRFFLELQRSGRLLTAAKRLNTTHSTVARHIESIEQSLGTALFVQHAQGYELTPSGQALLKHAEAMENVALLAQEEITQAITPLGKIRLGVTEGIGIMFFTPRMNALFERYPGLEVELVAVPRFVSILNREAEISIHLERPNADLLITRKLTDYRLALYASQAYLDRAPPLRHREDLARHSWIGYVDDLLFSQELLFLNSFCRVPNVVFRSTSVIAQQAAARAGLGIAVLPNYMARHDPTLVRVLPGETIQRSYWICTRRELHKSVRLRVVWDYLLALCAAEQSELLAE,not soluble
8,MLSCELYRMSTYSTFPAGVPVSERSLARAGFYYTGVNDKVKCFCCGLMLDNWKRGDSPTEKHKKLYPSCRFVQSL,soluble
9,MFAKVHPAEDVKSGNTGSCHDLVRYLEKETGEGQRFFSHTEQDISPERVIMDIDGNKKALGANDAKFFMLSLNPSQSEQMHLIGRKVDDFKELTPQEKKEVFQKLEAFTRSAMDEYALNFGRDNIRGGQDLMYYARVETERSYHPEDEEVKQGIARIGEPKPGLNLHVHVIVSRKSLDGKVKLSPGAKSAGNTWELEGRGTVKRGFSHEGWKVRVQECFNRKFDYQA,not soluble
10,MPVAPNPLLQANAIAKTSRSATVQADKPLQALGDKGDAFGQVMARQGRDKVTGQDDKVAQAKPKDKPDAAAGGKKDPAGKAAVADDGNKLPEEDSAQADTGVRDASLVAGQVTDAQPGAQLIQAQAEAVAPVLQAATAQTQVSAALPEEPSAEEAFDPDADPLANLPTLRLALEHSAQAKGGTSAHALDAAQAQGEEGQAAVNTLANLVEDTDGESAESGGKAFGALLEDGLKDTKSASSDTRIDDFANRLASLTQAATAKTANAVPATANPLHQPLPMNQNAWAEGLVNRVMYLSSQNLKSADIQLEPAELGRLDIRVNVAADQATQVTFISGHAGVRDALDSQVHRLRELFAQQGLAQPDVNVADQSRGQQQQQGQAQGSNLSGVAARRAEQGGAEAVDSARPLEQQVVVGDSAVDYYA,not soluble
11,MGSDKIHHHHHHMEEANFYHALKIDNDRCIGCTHCMKECPTGAIRIRDGKALIHKDWCVDCGECLKSCPTEAIYVEQDDFQRIFDYKCRVALMPTVFIGQFSKYTTEKEIISAVMELGFTHVFQVEFTADMIHKEMVRQMENAEEKPVISSFCPAIVRLIQVRFPALVDNILLVKAPVNASATYYHKILEGQGVPSEEIGIFYVTPCAAKIAALKGAEGYSSTIKGVINMDTLYNKVYHILKNRPRGYEPECELPPPLTKKEMRWSQTGGEAKHFSGRCLAIDEIHNVIDFLERMETTSEVRNVDFLELRACDRSCAGGVLAVANRFLTAERIMKRSMNRDKVPMIYAADNFEALSYLRQHITIRPVQPNPKRLYDGTIDEMLKKMEQVRKLMCYLPGIDCGACGSPNCQSLAEDIVRHEAQFSDCVFMQRNMEKHGKLDQEHAFRIVEKTWGKDRLNKDCYKKGAKYEGL,not soluble
12,MGFLWKTAKLGIKVGLVAGAVKLSIDNDIWSTNNVKGSELYQKLKKYILPGTVVFPEQLPTVEDVQLKAGGKWNSAVDSVFTTIENVPSSVNTVANRLINNK,not soluble
13,MGSDKIHHHHHHMNTLTDVEWNAFALPANLADGHAYHDMHVAFMEIMKNLERIWSEADKITPPRMALDFKNSFSRLIKSPSLMPHTHYKICPSASNSIDLIAAFLHGKNIRTVLVEPTFDNLALLLQRRGVTVDSVSEDNLTHHLVDGNFDSIPAIKTAEAVFIVSPNNPTGYTLSLQEFKTLVAYCKRTEKLLVVDNSFRFFNRQGYDDYQVLLESGVNFIAFEDTGKTWPTQDLKASLIIYSDTVKVFFESLYNEIYLCVSNFVLHLFSHLFDATSAVGLKSVLWDVVDSNRALLRETLQGSVLRISETSKEGLK,not soluble
14,MGSDKIHHHHHHMDTELARTFLTVAATGNFVAAASRLHVTQSTVSARIQTLETTLGARLFQRGRNGAELTASGKRFLRHAKHLVRTVEQALHDVGLPQGFHDVLTLSGRIALWEGFLPHWVAWMREAAPDVSLRLEIGFEADIMQGLIEGTTDIGVMYTPTSRPGLVVEPLFDENLMLVTSDLARGWPEEGYIHIDWGPEFHAQFSDHFPDAPPPTVVANIGWLGVQQLLTYGGSGYFPQRLVRQLIEDGRLWRVPDSPQFKLTAWMVFPREGSATLKSALDGLRTLARDEQARL,not soluble
15,NTTGGRFVDKDNRKYYVKDDHKAIYWHKIDGKTYYFGDIGEMVVGWQYLEIPGTGYRDNLFDNQPVNEIGLQEKWYYFGQDGALLEQTDKQVLEAKTSENTGKVYGEQYPLSAEKRTYYFDNNYAVKTGWIYEDGNWYYLNKLGNFGDDSYNPLPIGEVAKGWTQDFHVTIDIDRSKPAPWYYLDASGKMLTDWQKVNGKWYYFGSSGSMATGWKYVRGKWYYLDNKNGDMKTGWQYLGNKWYYLRSSGAMVTGWYQDGLTWYYLNAGNGDMKTGWFQVNGKWYYAYSSGALAVNTTVDGYSVNYNGEWVQ,soluble
16,LSEKEFFMSRAIKLAKLGWGKTNPNPLVGAVVVKDGKIIAEGYHKQLGGPHAEVEAFNNAKEDVAGGTLYVNLEPCSHYGRTPPCAQKIIDVGIKKVVAAIKDPNPKVSGRGFEMLKNAGIEVEVGVLEEEAIRLNEIFITYIVKKKPFVILKTAMTLDGKIATASGDSKWVTGEKARNHVHVIRDRVAAVMVGINTVLKDNPYLTTRLPDKEGSDPVRIVVDSKGSIPLDSNVINSNSKAGVILATTSRIDKEKEKMLIDKGVKIIKADGSDGRVDLKLLMDELYKLEIDSVLLEGGGTLNSSAISAGIVDKVMCFISPKIVGGENAPTSVEGIGALRMCEAIGVKNISVVKFGEDILLEGYIE,soluble
17,MAKKVAVLAVNPVNGCGLFQYLEAFFENGISYKVFAVSDTKEIKTNSGMVLIVDDVIANLKGHEDEFDALVFSCGDAVPVFQQYANQPYNVDLMEVIKTFGEKGKMMIGHCAGAMMFDFTGITKGKKVAVHPLAKPAIQNGIATDEKSEIDGNFFTAQDENTIWTMLPKVIEALKLEHHHHHH,soluble
18,MRGSHHHHHHGSEEASSTGRNFNVEKINGEWHTIILASDKREKIEDNGNFRLFLEQIHVLEKSLVLKFHGRVRLLNNWDCSELSMVADKTEKAGEYSVTYDGFNTFTIPKTDYDNFLMAHLINEKDGETFQLMGLYGREPDLSSDIKERFAQLCEEHGILRENIIDLSNANRCLQARE,soluble
19,GPGSMVPTLHPGEYIVFVPYTMLQVRRWFNAPLVNLSDVVVVKVSDDLSVCKRVVKCTSSRTQAEEWGKEHYVEVMPALYSPPAAQHTNGDDEDSTEIDSVANSERAYFDYVARNTVRSKDWDSCIDRIPNPSQWVWLEGDNKSESFDSRRCGPVPIECIRGLVLASIWPSPHTLQRPPPPPRASQLH,not soluble
20,MGSDKIHHHHHHMLSRILEKYRENGIQGIVLALISRFPGVRAVCVYYVYRLPFDKLVRKQLSVGNLKVVQVKSDSMGDLIRVQDKPDIFGERFQMGHYGFVAYVNNDPVAYLWGQEGPVHVERRFGFEVPIKDNQVFYYDSYTIPEWRKSGVGRALIQESIDFFKNGLGKSELIAIIETGNLVSQKTYERMGFVREAMHIHLDIIGKKINKQLARMVTQ,not soluble
21,MRITASLRTFCHLSTPHSDSTTSRLWIDEVTAVARQRDRDSFMRIYDHFAPRLLRYLTGLNVPEGQAEELVQEVLLKLWHKAESFDPSKASLGTWLFRIARNLYIDSVRKDRGWVQVQNSLEQLERLEAPVDRTLDYSQRQEQQLNSAIQNLPTDQAKVLRMSYFEALSHREISERLDMPLGTVKSCLRLAFQKLRSRIEES,not soluble
22,MGDSTFLDRMLLQLRSTCKYYSGYPKDLGPSRVLHFTSEREFVQLLHQGYPVVVAFTIRSNYTQHLDRMLEEAAAEFYPNIKFMRVECPKYPGFCITRQKNEYPFIEIFHSPQHAGNEGKVQDPNITRYSVKVVPYNYDMSPYGFREFFKRQGVRTSDPK,not soluble
23,MGTPVVWEGNIGNPPEHKSFPNGNNEPRQLLRLNVMFDNSIPDGSGGYKDRGGFWANVEWWHPDAERFAQLFSKGMRVVVTGRAIMDTWKDKETGDDVWALKVEANRVAILPHRVNQVTMTQSNNTGQRQNAQQNNRPERQQNSAQQPGQHTDDLSHYGNGFDDDIPVLEHHHHHH,soluble
